Measured values taken from article PMC10397247.
One block for each binder: values may come before it.

Legend:
Assay in all cases: two-hybrid library CCmax;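 also: natural log of median RNA to DNA barcode read ratio; higher means stronger binding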
4H347-AA = target: T1, 4H347-AA; conditions: mean of both orientations
T1 chain: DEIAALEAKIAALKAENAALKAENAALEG

4H249-AA = target: T2, 4H249-AA; conditions: mean of both orientations
T2 chain: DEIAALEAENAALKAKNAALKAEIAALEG

GCN2_T = target: GCN2_T
4H2124-AA = target: T3, 4H2124-AA
T3 chain: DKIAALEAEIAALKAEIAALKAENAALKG

4H2343-AA = target: T4, 4H2343-AA; conditions: mean of both orientations
T4 chain: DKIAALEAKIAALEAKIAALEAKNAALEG

4H2931-AA = target: T5, 4H2931-AA; conditions: mean of both orientations
T5 chain: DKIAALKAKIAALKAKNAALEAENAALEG

4H_BCR = target: T6, 4H_BCR; conditions: mean of both orientations
T6 chain: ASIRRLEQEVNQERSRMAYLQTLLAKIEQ

4H3073-AA = target: T7, 4H3073-AA
T7 chain: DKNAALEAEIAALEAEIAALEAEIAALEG

4H2774-AA = target: T8, 4H2774-AA; conditions: mean of both orientations
T8 chain: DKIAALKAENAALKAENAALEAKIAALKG

4H2253-AA = target: T9, 4H2253-AA; conditions: mean of both orientations
T9 chain: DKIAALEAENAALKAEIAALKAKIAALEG

4H2592-AA = target: T10, 4H2592-AA; conditions: mean of both orientations
T10 chain: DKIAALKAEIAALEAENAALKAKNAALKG

4H3015-AA = target: T11, 4H3015-AA
T11 chain: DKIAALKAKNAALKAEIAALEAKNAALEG

4H_GCN4 = conditions: mean of both orientations
4H2732-AA = target: T12, 4H2732-AA; conditions: mean of both orientations
T12 chain: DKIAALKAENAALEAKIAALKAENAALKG

4H406-AA = target: T13, 4H406-AA; conditions: mean of both orientations
T13 chain: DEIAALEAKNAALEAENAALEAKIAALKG

4H3438-AA = target: T14, 4H3438-AA; conditions: mean of both orientations
T14 chain: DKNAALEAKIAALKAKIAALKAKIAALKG

4H2466-AA = target: T15, 4H2466-AA; conditions: mean of both orientations
T15 chain: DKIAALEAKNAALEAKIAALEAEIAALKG

4H452-AA = target: T16, 4H452-AA; conditions: mean of both orientations
T16 chain: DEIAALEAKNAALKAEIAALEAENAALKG

4H56-AA = target: T17, 4H56-AA; conditions: mean of both orientations
T17 chain: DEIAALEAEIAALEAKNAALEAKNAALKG

4H_APH = target: T18, 4H_APH; conditions: mean of both orientations
T18 chain: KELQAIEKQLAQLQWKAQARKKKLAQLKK

4H2330-AA = target: T19, 4H2330-AA; conditions: mean of both orientations
T19 chain: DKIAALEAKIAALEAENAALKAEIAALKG

4H3001-AA = target: T20, 4H3001-AA; conditions: mean of both orientations
T20 chain: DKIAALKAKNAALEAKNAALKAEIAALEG

4H2165-AA = target: T21, 4H2165-AA; conditions: mean of both orientations
T21 chain: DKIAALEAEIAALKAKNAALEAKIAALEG

APC1434-AA = target: T22, APC1434-AA; conditions: mean of both orientations
T22 chain: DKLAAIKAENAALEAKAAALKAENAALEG

APC3645-AA = target: T23, APC3645-AA; conditions: mean of both orientations
T23 chain: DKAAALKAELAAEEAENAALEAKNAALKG

APC2405-AA = target: T24, APC2405-AA; conditions: mean of both orientations
T24 chain: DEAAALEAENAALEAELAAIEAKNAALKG

APC8191-AA = target: T25, APC8191-AA; conditions: mean of both orientations
T25 chain: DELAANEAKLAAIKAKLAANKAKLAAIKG

4H807-AA = target: T26, 4H807-AA; conditions: mean of both orientations
T26 chain: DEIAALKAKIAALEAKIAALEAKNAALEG

APC1015-AA = target: T27, APC1015-AA; conditions: mean of both orientations
T27 chain: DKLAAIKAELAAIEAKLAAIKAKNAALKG

APC8910-AA = target: T28, APC8910-AA; conditions: mean of both orientations
T28 chain: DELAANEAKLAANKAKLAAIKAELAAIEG

APC5383-AA = target: T29, APC5383-AA; conditions: mean of both orientations
T29 chain: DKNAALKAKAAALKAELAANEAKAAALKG

APC9096-AA = target: T30, APC9096-AA; conditions: mean of both orientations
T30 chain: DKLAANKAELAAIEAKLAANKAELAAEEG

APC7099-AA = target: T31, APC7099-AA; conditions: mean of both orientations
T31 chain: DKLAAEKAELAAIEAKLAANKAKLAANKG

4H733-AA = target: T32, 4H733-AA; conditions: mean of both orientations
T32 chain: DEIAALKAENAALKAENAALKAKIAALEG

APC2237-AA = target: T33, APC2237-AA; conditions: mean of both orientations
T33 chain: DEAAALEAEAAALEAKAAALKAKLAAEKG

APC6108-AA = target: T34, APC6108-AA; conditions: mean of both orientations
T34 chain: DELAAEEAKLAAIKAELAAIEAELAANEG

APC4264-AA = target: T35, APC4264-AA; conditions: mean of both orientations
T35 chain: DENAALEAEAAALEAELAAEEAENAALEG

APC232-AA = target: T36, APC232-AA; conditions: mean of both orientations
T36 chain: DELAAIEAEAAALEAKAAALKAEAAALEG

APC9319-AA = target: T37, APC9319-AA; conditions: mean of both orientations
T37 chain: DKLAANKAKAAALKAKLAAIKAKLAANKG

APC4011-AA = target: T38, APC4011-AA; conditions: mean of both orientations
T38 chain: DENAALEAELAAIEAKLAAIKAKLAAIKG

APC4436-AA = target: T39, APC4436-AA; conditions: mean of both orientations
T39 chain: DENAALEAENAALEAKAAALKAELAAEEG

4H716-AA = target: T40, 4H716-AA
T40 chain: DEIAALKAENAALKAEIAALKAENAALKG

Sequence of 4H_GCN4 (chain, as listed by the source): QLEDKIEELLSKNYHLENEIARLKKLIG

- interaction score (4H347-AA): -1.2
- interaction score (4H249-AA): -1.78
- interaction score (GCN2_T): -1.07
- interaction score (4H2124-AA): 1.61
- interaction score (4H2343-AA): -0.871
- interaction score (4H2931-AA): -1.45
- interaction score (4H_BCR): -2.09
- interaction score (4H3073-AA): 1.36
- interaction score (4H2774-AA): -1.38
- interaction score (4H2253-AA): -1.14
- interaction score (4H2592-AA): -0.666
- interaction score (4H3015-AA): -1.19
- interaction score (4H_GCN4): -1.93
- interaction score (4H2732-AA): -1.2
- interaction score (4H406-AA): -1.71
- interaction score (4H3438-AA): -0.0325
- interaction score (4H2466-AA): -1.16
- interaction score (4H452-AA): -1.95
- interaction score (4H56-AA): -1.73
- interaction score (4H_APH): -1.67
- interaction score (4H2330-AA): -1.05
- interaction score (4H3001-AA): -1.89
- interaction score (4H2165-AA): -1.36
Binder: DKIAALEAEIAALKAEIAALKAENAALKG [4H2124-AA]

- interaction score (APC1434-AA): -1.53
- interaction score (APC3645-AA): -1.45
- interaction score (APC2405-AA): -1
- interaction score (APC8191-AA): -1.36
- interaction score (4H807-AA): -1.6
- interaction score (APC1015-AA): -1.65
- interaction score (APC8910-AA): -1.89
- interaction score (APC5383-AA): -1.79
- interaction score (APC9096-AA): -1.43
- interaction score (APC7099-AA): -1.6
- interaction score (4H733-AA): -1.28
- interaction score (APC2237-AA): -1.74
- interaction score (APC6108-AA): -1.47
- interaction score (APC4264-AA): -1.35
- interaction score (APC232-AA): -1.48
- interaction score (APC9319-AA): -1.79
- interaction score (APC4011-AA): -1.44
- interaction score (APC4436-AA): -1.65
- interaction score (4H716-AA): 1.49
Binder: DEIAALKAENAALKAEIAALKAENAALKG [4H716-AA]
